These results are taken from the DeepSol protein solubility set.

This series is described as follows: soluble on expression in E. coli; label from the status in PepcDB or PDB records.
As to “MGSDKIHHHHHHMKAISANLQRLLAESGMKQSHLATILNIPTSSLNEYVKGKSLPKIGNIQKIADYFGLQKSDIDPRFASKKDSSTLDKINHIAKQLEMKRQIKVLDFCYQQSKEQDETASLSASDETTEDKVADKSNHTQYQKVVDSFIAKELNDQTIIHWDNVIKAKDLYQTFGRQYENIQIYGEVSAGTGIWVGHEKQETIKYPIPIPEHDIALIVNGNSMEPLFYNGDVIFVKKTKAIHHGQIIVVIVNNEAYVKKLYRKNKEIRLISLNPDYDDIILKEDDTIEVIGTVIT”, the “soluble on expression in E. coli” value is listed as “not soluble”.

As to “MSLQIIEPDNLIKEGDLRSIRAKTLQSARGIISDRNGEALAVSVPVEAVWADPVAIYKEGGLVEKDRWYALADVLGLDRQEMMKKIEDNRSRRFIYLQRQVSPAMAKYIRELKLAGIGLKEESRRYYPAGEVSAHLVGVTGIDGHGLEGVERSFDSTLTGESGKSVTRKDKFGRVVENIALEEREEGKPIQLTIDQRLQAIAFRAVKQAMADYRATSASAVMLDVKTGAVLAMVNAPSYNPNNRNDWQSFKMRNRVITDAFEPGSTVKPFVVLAALANGIADKNTIIDTGDGTMQIGGSRVRDTSKVGKADLTLILKKSSNIGVAKLALEMPLEALLGMYSSVGLGEMSGLDLVGETIGIFPNRRRWSQFEIATLSFGYGLAITPIQLAHAYATLGNHGKYQPIHIIKGDQHGETRQVVDPKYVNQVLEMLETVTQPGGTATRAAVPGYRIAAKSGTSRKAIAGGYSDEYFAYTAGVAPVSDPRISLVVMVNEPQGDSYYGGAVAGPVFSEIMKGALQILNIAPDENRFQNEGHHHHHH”, the “soluble on expression in E. coli” value is given as “soluble”.

In the case of “GHHHHHHHHHHSSGHISGDAMEDKQERANYEKLQQKFQMLMSKHQAHVRPQFESLEKINKDIVGWIKLSGTSLNYPVLQGKTNHDYLNLDFEREHRRKGSIFMDFRNELKNLNHNTILYGHHVGDNTMFDVLEDYLKQSFYEKHKIIEFDNKYGKYQLQVFSAYKTTTKDNYIRTDFENDQDYQQFLDETKRKSVINSDVNVTVKDRIMTLSTCEDAYSETTKRIVVVAKIIKVS”, the “soluble on expression in E. coli” value is listed as “soluble”.

In the case of “MRCIMTEDAQKLAIMEQDVKIVRALSKIKHKIVVMSGKGGVGKSTVTVKLAEEFSRNGYSVCVLDADVHGPDIPKMMRVREPEITLTGNLINPIPTPVGATVMSIEFFLPSEDTPVIWRGPKKTGAIRQLLADVNWEGIDVLIVDNPPGTGDEPLTVLQSIPGIDGVVIVTTPQEVSIHDVEKCINMVNHLKIPVLGIIENMSYLQCPECGKKVFLFGKDGGKYLADKFDLQFLGEIPFETGISGDNESSASSYINNEMVKIFNKLAKYLKDGGANLEHHHHHH”, the “soluble on expression in E. coli” value is on record as “soluble”.

As to “KALEEMHIPVDIITGTSMGAYVGGLYATGMSADEIESFIYSVDWNSGYRDRVDRSQRRVRDKEYEDRYQITTDLGLRFGEVRAPTGVVQGQNMLRVLRETTGNLGRFDSFDELAIPYRSVATDILELDEVVIGNGYLVDAMMASMSVPGALPPYKLNGHMLVDGGVVNNMPVDVARAMGADVVIAVDISTDYKTEDDFTGLFTVADQLSNYLVRRSTQQQVETLQEHDVYIRPNVGQMETVEFDKMPWAFQSGYDITREMESKLAGLRLSNAEYQKYIDHKQEVRKKLVYGDDRVVDEIVIVNNTHYS”, the “soluble on expression in E. coli” value was “not soluble”.

Consider “MVLPKDVKWDLIRQFQRHEQDTGSPEVQIAILTERINRLTEHMKKHKKDIHSRRGLIAMVNKRRKLLEYLRETDYAKYLEVVQKLNLKVK”, for which the “soluble on expression in E. coli” value is reported as “soluble”.

For “DRCRYTLCCDGALKAVSACLHESESCLVPGDCCRGKSRLTLCSYGEGGNGFQCPTGYRQC”, the “soluble on expression in E. coli” value is reported as “soluble”.

With “MSLKPQVYHVDAFTSQPFRGNSAGVVFPADNLSEAQMQLIARELGHSETAFLLHSDDSDVRIRYFTPTVEVPICGHATVAAHYVRAKVLGLGNCTIWQTSLAGKHRVTIEKHNDDYRISLEQGTPGFEPPLEGETRAAIINALHLTEDDILPGLPIQVATTGHSKVMIPLKPEVDIDALSPDLNALTAISKKIGCNGFFPFQIRPGKNETDGRMFSPAIGIVEDPVTGNANGPMGAWLVHHNVLPHDGNVLRVKGHQGRALGRDGMIEVTVTIRDNQPEKVTISGTAVILFHAEWAIELEGGSHHHHHH”, the “soluble on expression in E. coli” value is given as “soluble”.
